Read-outs that look alike come from different tables or passages of the source. Ends that are not written are not given here.
B1: FYCO1 WT LIR peptide (peptide)
chain: TDYRPPDDAVFDIITDEELCQIQE
modifications: 24-mer limits inferred: 10 residues on each side of the core FDII (1280-1283), as in the arrays; exact peptide is in Supplementary Table 2. N- or C-terminal biotin if used in BLI, cellulose-bound if in the array
B2: LC3C (recombinant, BLI) (natural protein)
chain: MPPPQKIPSVRPFKQRKSLAIRQEEVAGIRAKFPNKIPVVVERYPRETFLPPLDKTKFLVPQELTMTQFLSIIRSRMVLRATEAFYLLVNNKSLVSMSATMAEIYRDYKDEDGFVYMTYASQETFG

Columns and labels:
Test in all cases: BLI
[1] = biological target: LC3B E62Q (recombinant, BLI) (human, UniProt Q9GZQ8 1-120, E62Q)
[2] = biological target: GABARAP R28K (recombinant, BLI) (human, UniProt O95166 1-117, R28K)
[3] = biological target: GABARAP F62K (recombinant, BLI) (human, UniProt O95166 1-117, F62K)
[4] = biological target: GABARAP L63I (recombinant, BLI) (human, UniProt O95166 1-117, L63I)
[5] = biological target: GABARAP (recombinant, BLI) (human, UniProt O95166 1-117)
[6] = biological target: B2
[7] = biological target: -L1 (recombinant, BLI) (human, UniProt Q9H0R8 1-117)
Chain of -L1 (recombinant, BLI) (Q9H0R8 whole entry): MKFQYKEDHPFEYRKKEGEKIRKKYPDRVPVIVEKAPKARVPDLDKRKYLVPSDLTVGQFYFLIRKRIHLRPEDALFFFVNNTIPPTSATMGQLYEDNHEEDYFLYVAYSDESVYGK

[8] = biological target: T1, GABARAP-L2 (recombinant, BLI) (human, UniProt P60520 1-117)
T1 sequence (P60520 whole entry): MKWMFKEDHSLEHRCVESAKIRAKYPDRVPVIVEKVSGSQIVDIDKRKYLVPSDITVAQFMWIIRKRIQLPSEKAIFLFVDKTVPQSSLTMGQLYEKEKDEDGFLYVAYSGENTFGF

[9] = biological target: LC3B Q26K/H27Y/E62Q (recombinant, BLI) (human, UniProt Q9GZQ8 1-120, Q26K | H27Y | E62Q)
[10] = biological target: LC3B Q26K/H27Y/K30R (recombinant, BLI) (human, UniProt Q9GZQ8 1-120, Q26K | H27Y | K30R)
[11] = biological target: GABARAP Y25H (recombinant, BLI) (human, UniProt O95166 1-117, Y25H)
[12] = biological target: GABARAP K24Q/Y25H/Q59E/F60L (recombinant, BLI) (human, UniProt O95166 1-117, K24Q | Y25H | Q59E | F60L)
[13] = biological target: GABARAP Q59E (recombinant, BLI) (human, UniProt O95166 1-117, Q59E)
[14] = biological target: GABARAP L55V (recombinant, BLI) (human, UniProt O95166 1-117, L55V)
[15] = biological target: GABARAP K24Q/Y25H/R28K (recombinant, BLI) (human, UniProt O95166 1-117, K24Q | Y25H | R28K)
[16] = biological target: GABARAP K24Q (recombinant, BLI) (human, UniProt O95166 1-117, K24Q)
[17] = biological target: T1, GABARAP-L2 (recombinant, BLI); remark: listed apart in the source
[18] = biological target: T2, LC3A (recombinant, BLI) (human, UniProt Q9H492 1-121)
[19] = biological target: B2
[20] = biological target: T2, LC3A (recombinant, BLI); remark: listed apart in the source
[21] = biological target: T3, LC3B (recombinant, BLI) (human, UniProt Q9GZQ8 1-120)
[22] = biological target: T3, LC3B (recombinant, BLI); remark: listed apart in the source
[23] = biological target: PCM1 LIR peptide mutated at P1962 (X7) (BLI) (UniProt Q15154, biotin (position not given))

## NISQKSDEEDFVKVEDLPLKLTIY (also: biotin, position not given here) [PCM1 LIR peptide (biotinylated, BLI)]
[1]
  Kd: 160 µM
[2]
  Kd: 4.2 µM
[3]
  Kd: 3.8 µM
[4]
  Kd: 2 µM

## NISQKSDEEDFDKVEDLPLKLTIY (also: biotin, position not given here) [PCM1 V1956D LIR peptide]
[5]
  Kd: 7.7 µM

## SDNCSGGDDDWTHLSSKEVDPSTG (also: biotin, position not given here) [p62 LIR peptide (biotinylated, BLI)]
[6]
  Kd: 2.7 µM

## NISQKSDEEDFVKVTDLPLKLTIY (also: biotin, position not given here) [PCM1 E1959T LIR peptide (BLI)]
[7]
  Kd: 2.9 µM
[5]
  Kd: 3.1 µM
[8]
  Kd: 19 µM

## SKDSSCDTDDFVMVPAQFPGDLVA (also: biotin, position not given here) [ULK1 LIR peptide (biotinylated, BLI)]
[9]
  Kd: 5.6 µM
[10]
  Kd: 2.9 µM
[2]
  Kd: 0.39 µM
[11]
  Kd: 0.26 µM
[3]
  Kd: 0.15 µM
[12]
  Kd: 5.6 µM
[13]
  Kd: 0.36 µM
[14]
  Kd: 0.13 µM
[15]
  Kd: 3.2 µM
[16]
  Kd: 0.42 µM
[6]
  Kd: 2.5 µM
[17]
  Kd: 0.53 µM
[18]
  Kd: 5.9 µM

## NISQKSDEEDFVKIEDLPLKLTIY (also: biotin, position not given here) [PCM1 V1958I LIR peptide]
[19]
  Kd: 6.9 µM
[5]
  Kd: 1.5 µM
[8]
  Kd: 7.6 µM

## NISQKSDEEDFVIVEDLPLKLTIY (also: biotin, position not given here) [PCM1 K1957I LIR peptide (BLI)]
[7]
  Kd: 0.13 µM
[19]
  Kd: 0.38 µM
[5]
  Kd: 0.17 µM
[8]
  Kd: 1.19 µM
[20]
  Kd: 3.9 µM

## TDYRPPDDAVFDIITDEELCQIQE
[7]
  Kd: 0.9 µM

## PDSIDAHTFDFETIPHPNIEQTIH (also: biotin, position not given here) [FIP200 LIR peptide (biotinylated, BLI)]
[2]
  Kd: 12.5 µM
[14]
  Kd: 8.5 µM
[15]
  Kd: 70.3 µM
[4]
  Kd: 3.8 µM

## NISQKSDEEDFDIIEDLPLKLTIY (also: biotin, position not given here) [PCM1 FDII LIR peptide (BLI)]
[7]
  Kd: 0.91 µM
[21]
  Kd: 21.8 µM
[19]
  Kd: 2.4 µM
[5]
  Kd: 1.4 µM
[8]
  Kd: 17 µM
[20]
  Kd: 4.6 µM

## B1
[21]
  Kd: 1.1 µM
[19]
  Kd: 3 µM
[5]
  Kd: 1.7 µM
[8]
  Kd: 17.4 µM
[20]
  Kd: 0.78 µM

## GGSSGNTHDDFVMIDFKPAFSKDD (also: biotin, position not given here) [ATG13 LIR peptide (biotinylated, BLI)]
[9]
  Kd: 3.1 µM
[1]
  Kd: 4.5 µM
[12]
  Kd: 3.3 µM
[22]
  Kd: 9.6 µM
[6]
  Kd: 0.48 µM
[17]
  Kd: 3.1 µM

## B2
[23]
  Kd: 10.8 µM
